Experiments:
integrin αvβ3 [1] = target: T1, integrin αvβ3 (human, UniProt P06756 31-1048; P05106 27-788); test: HUVEC adhesion to immobilized peptide with function blocking antibodies
T1 construct: whole, on cells; Endogenous receptor on cells; also called β3 integrin
Procedure: RGD peptides (P-1, P-2, P-3, P-4, P-5, and P-C) were immobilized (100 μg/ml) to wells. HUVEC, HMVEC, HRMVEC, and HDF cells were suspended in adhesion buffer (RPMI containing 1 mM MgCl2, 0.2 mM MnCl2 and 0.5% BSA) and 1×10^5 cells were seeded into the wells in the presence or absence of P4C10, LM609, P1F6 or control antibodies (100 μg/ml). Cells were allowed to attach for 25 min at 37° C. Media containing non-attached cells was aspirated and attached cells were washed with PBS and stained with crystal violet. Cell adhesion was quantified by measuring the optical density of eluted dye. Adhesion assays were completed at least three times with triplicate wells.
It is well established that multiple integrins recognize RGD amino acid motifs within ECM proteins. However, the ability of an integrin to bind distinct RGD epitopes depends in part on its orientation within the parent molecule and the C-terminal amino acid sequences flanking the RGD motif (25-27). Potential cell surface receptors that mediate interactions with the RGDKGE (SEQ ID NO. 1) containing collagen P-2 peptide were identified. The ability of endothelial cells to bind the RGD collagen peptides P-1 and P-2 in the presence or absence of function blocking anti-integrin antibodies was examined.

integrin αvβ3 [2] = target: T1, integrin αvβ3; test: cell-based or functional assay

T1 sequence (P06756 31-1048, chain 1 of 2): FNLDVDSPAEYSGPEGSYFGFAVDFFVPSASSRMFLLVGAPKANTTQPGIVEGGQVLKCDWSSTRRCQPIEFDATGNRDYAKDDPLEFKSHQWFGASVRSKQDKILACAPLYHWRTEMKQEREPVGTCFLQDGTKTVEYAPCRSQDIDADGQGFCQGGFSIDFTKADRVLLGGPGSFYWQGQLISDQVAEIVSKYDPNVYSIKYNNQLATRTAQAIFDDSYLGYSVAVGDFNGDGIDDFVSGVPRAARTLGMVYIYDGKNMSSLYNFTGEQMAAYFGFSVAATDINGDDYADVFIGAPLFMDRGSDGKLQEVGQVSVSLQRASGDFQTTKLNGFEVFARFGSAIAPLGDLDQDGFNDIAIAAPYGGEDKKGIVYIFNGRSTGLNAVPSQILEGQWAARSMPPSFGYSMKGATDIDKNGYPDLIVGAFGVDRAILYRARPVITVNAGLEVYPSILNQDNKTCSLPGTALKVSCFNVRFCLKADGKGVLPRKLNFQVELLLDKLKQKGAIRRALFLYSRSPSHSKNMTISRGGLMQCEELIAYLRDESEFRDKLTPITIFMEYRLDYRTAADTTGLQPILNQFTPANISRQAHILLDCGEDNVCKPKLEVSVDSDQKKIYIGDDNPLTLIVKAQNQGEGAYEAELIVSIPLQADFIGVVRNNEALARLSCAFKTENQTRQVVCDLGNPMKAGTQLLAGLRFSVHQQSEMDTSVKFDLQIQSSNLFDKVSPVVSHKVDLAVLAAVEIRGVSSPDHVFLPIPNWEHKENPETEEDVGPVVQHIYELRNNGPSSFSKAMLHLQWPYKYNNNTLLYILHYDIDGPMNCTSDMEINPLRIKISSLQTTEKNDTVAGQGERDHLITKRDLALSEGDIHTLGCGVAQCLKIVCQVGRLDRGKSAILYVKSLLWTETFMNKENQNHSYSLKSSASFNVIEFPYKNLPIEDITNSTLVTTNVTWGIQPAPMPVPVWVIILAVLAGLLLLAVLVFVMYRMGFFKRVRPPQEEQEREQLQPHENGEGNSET
T1 sequence (P05106 27-788, chain 2 of 2): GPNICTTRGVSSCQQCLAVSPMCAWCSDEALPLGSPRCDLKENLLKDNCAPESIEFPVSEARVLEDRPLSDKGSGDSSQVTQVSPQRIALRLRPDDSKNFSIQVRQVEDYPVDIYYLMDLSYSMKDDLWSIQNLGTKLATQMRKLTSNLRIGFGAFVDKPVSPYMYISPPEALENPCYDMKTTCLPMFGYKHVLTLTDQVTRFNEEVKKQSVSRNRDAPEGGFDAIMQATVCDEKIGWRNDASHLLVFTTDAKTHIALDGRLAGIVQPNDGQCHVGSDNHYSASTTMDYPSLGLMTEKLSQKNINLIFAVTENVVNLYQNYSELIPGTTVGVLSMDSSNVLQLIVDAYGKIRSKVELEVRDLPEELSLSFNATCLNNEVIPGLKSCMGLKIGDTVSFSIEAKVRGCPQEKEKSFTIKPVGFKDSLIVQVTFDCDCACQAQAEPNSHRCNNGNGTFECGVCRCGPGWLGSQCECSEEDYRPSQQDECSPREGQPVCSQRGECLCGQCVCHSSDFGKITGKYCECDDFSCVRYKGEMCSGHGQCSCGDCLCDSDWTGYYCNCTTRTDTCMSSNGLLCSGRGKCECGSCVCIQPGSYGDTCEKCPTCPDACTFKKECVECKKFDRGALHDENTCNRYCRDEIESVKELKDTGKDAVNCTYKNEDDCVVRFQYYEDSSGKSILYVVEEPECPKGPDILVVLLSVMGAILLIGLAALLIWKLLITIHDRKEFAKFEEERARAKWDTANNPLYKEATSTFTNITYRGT

binding result (integrin αvβ3 [1])	Src phosphorylation (Western blot of HUVEC attached to the peptide, serum free) (integrin αvβ3 [2]) [fold]	β3-integrin phosphorylation (Western blot of HUVEC attached to the peptide, no growth factors) (integrin αvβ3 [2]) [fold]	Binder
binds			CKGDRGDAPGC (2) [Synthetic collagen RGD containing peptide P-1 (CKGDRGDAPGC)]
	~2	> 3	CQGPRGDKGEC [Synthetic collagen RGD containing peptide P-2 (CQGPRGDKGEC)]

Source: patent publication US20210100901A1 (MAINE MEDICAL CENTER RESEARCH INSTITUTE, published 2021)
